The Human Domainome abundance scans (Beltran et al. 2025)

B1: GAS2-like protein 1, residues 209 to 276; numbered along this chain, Q99501 (parent)
chain: DELVREILGRCTCPDQFPMIKVSEGKYRVGDSSLLIFVRVLRSHVMVRVGGGWDTLEHYLDKHDPCRC
B2: Ankyrin-1, residues 1405 to 1484; numbered along this chain, P16157 (parent)
chain: MKMAVISEHLGLSWAELARELQFSVEDINRIRVENPNSLLEQSVALLNLWVIREGQNANMENLYTALQSIDRGEIVNMLE

Variants of: B1
Assay: abundance fitness (aPCA) (normalised: wild type 0, dead -1); higher = more abundant; growth selection in yeast, the domain comes from the species named
Settings: Homo sapiens

Abundance fitness, by site and new letter:
D61: G -0.176 | A -0.074 | R -0.212 | P -0.729 | N -0.094 | M -0.073 | Y -0.068 | E 0.105 | I -0.3 | F -0.203 | S -0.146 | W -0.305 | K -0.249 | V -0.246 | H -0.274 | T -0.183 | Q -0.123 | L -0.063
R67: M -0.899 | Y -0.995 | W -1.02 | P -0.902 | K -0.616 | V -0.975 | A -0.763 | D -0.849 | N -1.01 | H -0.931 | C -0.92 | E -0.847 | I -0.638 | G -0.945 | S -0.789 | Q -0.882 | L -0.706
C66: H -0.822 | P -0.763 | M -0.734 | G -0.848 | S -0.621 | E -0.693 | L -0.875 | T -0.751 | Y -0.594 | D -0.502 | I -0.722 | W -1.01 | V -0.97 | F -0.928 | K -0.746 | A -0.878 | R -0.797 | Q -0.608
H63: T -0.322 | V -0.017 | R -0.162 | Y -0.081 | Q -0.555 | F -0.015 | A -0.434 | G -0.719 | W -0.233 | P -0.455 | K -0.077 | E -0.11 | C -0.377 | L -0.18 | M -0.145
L60: P -0.872 | R -0.889 | W -0.9 | Y -0.822 | T -0.994 | S -0.928 | Q -0.708
C68: G 0.176 | N -0.078 | D 0.046 | L 0.132 | T 0.225 | I -0.016 | W -0.051 | H 0.058 | E -0.024 | Y 0.047 | F 0.015 | S 0.118 | V 0.088 | A 0.177 | P -0.331
P65: K -0.734 | D -0.757 | R -0.625 | W -0.857 | H -0.605 | G -0.837 | E -0.688 | I -0.711 | N -0.498 | V -0.904 | Q -0.771 | S -0.898 | C -0.819 | A -0.591 | M -0.946 | Y -0.826
K62: A -0.069 | N -0.091 | E 0.054 | V 0.092 | C -0.25 | S -0.214 | R -0.065 | M -0.038 | F -0.27 | L -0.004 | G -0.337 | Y -0.242 | W -0.512 | H -0.298 | P -0.832 | I -0.078 | T -0.048 | Q 0.137 | D -0.234
D64: T -0.869 | N -0.86 | Y -0.936 | C -0.319 | F -0.419 | S -1.02 | A -1.03 | P -0.824 | I -0.75 | G -0.792 | V -0.927 | R -0.659 | H -0.511 | M -0.888 | Q -0.93 | K -1.12 | E -0.668 | L -0.812

Variants of: B2
Assay: as above
Settings: Homo sapiens

Abundance fitness: each site, then its substitutions
M3: D -0.332 | A -0.435 | C -0.385 | E -0.275
M1: V 0
K2: A -0.168 | C -0.284 | P -0.587 | N -0.081 | E 0.095 | S -0.4 | Q -0.155 | R -0.045 | H -0.271 | W 0.098 | I -0.003 | F -0.22 | Y -0.318 | T -0.254 | G -0.147 | D -0.542 | V -0.089 | L -0.258 | M -0.132
